# Legend:
# Experiment in all cases: SPR
# [1] = biological target: neonatal Fc receptor (FcRn), soluble, His-tagged (UniProt P55899); conditions: pH 6.0; Running buffer not stated; Table 1 labels the measurement pH 6.0
# [2] = biological target: human FcγRIIIa, His-tagged (human) (UniProt P08637)
# [3] = biological target: human neonatal Fc receptor (FcRn), His-tagged (human) (UniProt P55899)
# UniProt P08637, sequence (P08637 17-208): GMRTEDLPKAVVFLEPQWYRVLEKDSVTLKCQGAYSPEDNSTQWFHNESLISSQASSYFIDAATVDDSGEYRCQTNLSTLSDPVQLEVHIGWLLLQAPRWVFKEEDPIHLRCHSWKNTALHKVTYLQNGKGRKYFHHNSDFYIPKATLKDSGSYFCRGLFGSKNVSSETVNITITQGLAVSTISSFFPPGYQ
substance,measurement,setting,value
VRC01 (wild-type Fc) IgG1,Kon,[1],94000 M⁻¹ s⁻¹
same,koff,[1],0.279 s⁻¹
VRC01-IHH (non-FcRn-binding mutant) (antibody),Kd,[2],4500 nM
same,koff,[2],0.187 s⁻¹
VRC01-LS (antibody),koff,[3],0.0558 s⁻¹
same,kon,[3],223000 M⁻¹ s⁻¹
same,Kd,[2],1010 nM
same,koff,[2],0.1 s⁻¹
VRC01 (the wild type) (antibody),Kd,[2],1300 nM
same,koff,[2],0.105 s⁻¹

# Reference: article PMC4433741
